# According to patent US20240052063A1, “Binding Proteins 2” (Nucleus Therapeutics Pty. Ltd., priority 2017, published 2024):
# “Also recorded” adds a separate entry of the source.
# B1: Variant 13: cell penetrating anti-DNA di-scFv variant, amino acid sequence SEQ ID NO: 41 (protein)
# scFv: DIQMTQSPSSLSASLGDRATITCRASKTVSTSSYSYMHWYQQKPGQPPKLLIKYASYLESGVPSRFSGSGSGTDFTLTISSLQPEDAATYYCQHSREFPWTFGGGTKVEIKRADAAPGGGGSGGGGSGGGGSEVQLVESGGGLVQPGGSLRLSCAASGFTFSNYGMHWVRQAPGKGLEWVSYISSGSSTIYYADSVKGRFTISRDNAKNSLYLQMNSLRAEDTAVYYCARRGLLLDYWGQGTTVTVSSASTKGPSVFPLAPLESSGSDIQMTQSPSSLSASLGDRATITCRASKTVSTSSYSYMHWYQQKPGQPPKLLIKYASYLESGVPSRFSGSGSGTDFTLTISSLQPEDAATYYCQHSREFPWTFGGGTKVEIKRADAAPGGGGSGGGGSGGGGSEVQLVESGGGLVQPGGSLRLSCAASGFTFSNYGMHWVRQAPGKGLEWVSYISSGSSTIYYADSVKGRFTISRDNAKNSLYLQMNSLRAEDTAVYYCARRGLLLDYWGQGTTVTVSS
# modifications: Variant 13
# Key:
# [1] = tested on: Primary human glioblastoma (GBM) cancer cells; test: Percentage of live cells by trypan blue staining; format: cell-based; conditions: seven primary human GBM tumour explants, FIG. 14; listed as di-scFv (SEQ ID NO: 41)
# Experimental: Primary human glioblastoma (GBM) cancer cells extracted from primary human GBM tumours from patients were treated with control or di-scFv (SEQ ID NO: 41), and percentage of live cells was evaluated by trypan blue staining.
# [2] = tested on: DLD1 colon cancer cells; test: Alkaline phosphatase-based survey of nuclear penetration; format: cell-based; conditions: DLD1 cells treated one hour; FIG. 5
# [3] = tested on: human GBM cancer stem cells (CSCs) grown as tumour spheres; test: GBM cancer stem cell tumour spheres: penetration and sphere volume; format: cell-based; conditions: listed as di-scFv (SEQ ID NO: 41)
# Experimental: GBM cancer stem cells extracted from primary human GBM tumours from patients and grown as spheres were treated with control or di-scFv (SEQ ID NO: 41), and the effect of dose and incubation time on reduction of sphere volume was evaluated by confocal micrographs of DX1-rhodamine cellular penetration into GBM cells. Tumour spheres are recognised as a useful tool for pre-clinical studies as they retain tumour heterogeneity and more closely represent the original patient tumour.
# [4] = tested on: BRCA2-deficient DLD1 colon cancer cells; test: Cell viability by Trypan blue exclusion assay, BRCA2-deficient cells; format: cell-based; conditions: BRCA2-deficient DLD1, 7 days, FIG. 10
# Experimental: (§1) Next, a matched pair of BRCA2-proficient and deficient DLD1 colon cancer cells was treated with control media or media containing Variants 10, 13, 15, or 16. Cell viability was determined 7 days later by Trypan blue exclusion assay and by direct visualization of cell morphology by light microscopy. […] Representative light microscope images shown the changes in morphology in the BRCA2-deficient cancer cells treated with the variants are shown in FIG. 10, Panel A. Quantitative analysis of the cell survival by Trypan blue exclusion assay is shown in FIG. 10, Panel B.
# [5] = tested on: BRCA2-proficient DLD1 colon cancer cells; test: Cell viability by Trypan blue exclusion assay, BRCA2-proficient cells; format: cell-based; conditions: BRCA2-proficient DLD1, 7 days, FIG. 10
# Experimental: as §1
# [6] = tested on: PTEN-deficient U251 human glioma cells; test: Phospho-53BP1 foci accumulation (DNA damage), PTEN-deficient cells; format: cell-based
# Experimental: A matched pair of PTEN-proficient and deficient U251 human glioma cells were treated with control media or media containing Variant 10, 11, 13, 15, or 16 for twenty-four hours. Cells were then washed, fixed, blocked, and then probed with an anti-phospho-53BP1 antibody overnight. Cells were then washed and incubated with an AlexaFluor555-conjugated secondary antibody. Finally, cells were washed, counterstained with DAPI, and visualized under a fluorescence microscope. Images were saved and evaluated by CellProfiler to determine mean number of phospho-53BP1 foci per cell.
# (§2) A matched pair of BRCA2-proficient and deficient DLD1 colon cancer cells and PTEN-proficient and deficient U251 human glioma cells were treated with control media or media containing 10 μM di-scFv variant 13 (SEQ ID NO: 41), 5 nM olaparib, or combination treatment.
# [7] = tested on: BRCA2-deficient DLD1 colon cancer cells; test: Phospho-53BP1 foci accumulation, BRCA2-deficient cells; format: cell-based; conditions: FIG. 17
# Experimental: as §2
# [8] = tested on: GBM cells extracted from human GBM tumours (intracranial); test: Orthotopic mouse model of GBM; format: in vivo
# Excerpt: An orthotopic mouse model of GBM was generated by intracranial injection of GBM cells extracted from human GBM tumours.
# [9] = tested on: HDR-proficient DLD1 cells; test: Selectivity of combination therapy in HDR-proficient cells; format: cell-based; conditions: 5 nM olaparib, 10 μM di-scFv, alone or combined
# Experimental: Homology-directed repair (HDR) deficient BRCA2-DLD1 cells and PTEN-U251 cells were treated with control, 5 nM olaparib, 10 μM di-scFv, or 10 μM di-scFv+5 nM olaparib. Surviving fraction was determined by colony formation assay.
# It was then determined whether the combination of di-scFv and olaparib is simply universally cytotoxic, regardless of DNA repair status. To evaluate this possibility, HDR-proficient DLD1 cells were treated with the above regimen to confirm selectivity of combination therapy to HDR-deficient malignant cells.
# [10] = tested on: MCF-7 cells; test: Nuclear penetration by protein L immunostain of fixed cells; format: cell-based; conditions: FIG. 12, listed as di-scFv (SEQ ID NO: 41)
# Experimental: (§3) DLD-1 and MCF-7 cells were treated with control or di-scFv (SEQ ID NO: 41), and nuclear penetration was evaluated by protein L immunostain of fixed cells.
# [11] = tested on: DLD-1 cells; test: as above; format: cell-based; conditions: FIG. 11, listed as di-scFv (SEQ ID NO: 41)
# Experimental: as §3
# [12] = tested on: PTEN-deficient U87 human glioma cells; test: Cell viability by Trypan blue exclusion assay and light microscopy; format: cell-based; conditions: PTEN-deficient U87, 7 days after treatment, FIG. 9
# Experimental: Cell viability of PTEN-deficient U87 human glioma cells was also assessed following treatment with control media or media containing Variants 10, 13, 15, or 16. Cell viability was determined 7 days after treatment using Trypan blue exclusion assay and by direct visualization of cell morphology by light microscopy.
molecule,measurement,setting,value
B1,cancer cell death (percentage of live cells),[1],Five of the seven glioblastoma tumour explants treated with di-scFv (SEQ ID NO: 41) showed significant cancer cell death; also recorded: kills primary human glioblastoma cells
same,nuclear penetration (histogram of cell counts versus nuclear staining intensity) relative to the yeast prototype,[2],notable right shift and narrowing of distributions relative to the yeast prototype
same,cellular penetration into GBM spheres,"[3]; confocal micrographs, FIG. 15A",demonstrated cellular penetration in GBM spheres; also recorded: penetrates human glioblastoma spheres
same,sphere volume,"[3]; effect of dose and incubation time, FIG. 15B, C",reduced sphere volume in dose-dependent and time-dependant manner; also recorded: reduces sphere volume in a time-dependent (B) and dose-dependent (C) manner
same,cell viability (cell killing),[4],killed by the variants
same,cell viability (toxicity),[5],not toxic
same,percentage of P53BP1-positive cells,"[6]; HDR-deficient U251, 24 hour treatment, FIG. 17",increased
same,mean number of phospho-53BP1 foci per cell,"[6]; PTEN-deficient U251, twenty-four hours, FIG. 8",increased the number of foci
same,mean number of phospho-53BP1 foci per cell,"[6]; PTEN-deficient U251, 10 μM di-scFv, 5 nM olaparib, FIG. 17",increased the number of phospho-53BP1 foci
same,mean number of phospho-53BP1 foci per cell,"[7]; BRCA2-deficient DLD1, 10 μM di-scFv, 5 nM olaparib",increased the number of phospho-53BP1 foci
same,percentage of P53BP1-positive cells,"[7]; HDR-deficient DLD1, 24 hour treatment",increased
same,incidence of apoptosis in tumours (TUNEL staining),[8]; FIG. 16B,increased incidence of apoptosis
same,toxicity or weight loss associated with treatment,"[8]; body weight profile, FIG. 16D",No toxicity or weight loss
same,median survival longer than controls,[8]; controls median 72 days,more than 20%
same,mean survival,"[8]; group of 7 mice, FIG. 16E",83 days
same,median survival,"[8]; group of 7 mice, FIG. 16E",87 days
same,di-scFv in adjacent normal brain cells (protein L immunostaining),"[8]; normal brain, FIG. 16C",not evident
same,crossing of the blood brain barrier,[8]; suggested by tumour size reduction and TUNEL staining,successfully crossed the blood brain barrier
same,reduction of glioblastoma tumour size versus control mice,"[8]; tail vein injection, brain sections, FIG. 16A",more than 40%
same,di-scFv in GBM tumour cells (protein L immunostaining),"[8]; tumour tissue, FIG. 16C",detected in the nuclei of GBM tumour cells
same,cell death,[9],No effect on cell death
same,nuclear penetration,[10],successfully penetrated; also recorded: penetrates HDR deficient MCF-7 breast cancer cell nuclei
same,nuclear penetration,[11],successfully penetrated; also recorded: penetrates HDR deficient DLD-1 colon cancer cell nuclei
same,cell viability relative to control treated cells,[12],caused reductions in cell viability
